Data: PMC8906540 (RNA, 2022)

Molecular target: the molecule itself
Assay: SEC

B1: YloC protein of Bacillus subtilis, purified, 8×His-Sumo tag removed (enzyme, UniProt O34441 1-291, looked up)
chain: MIRSMTGFGSASKTQDDLSVSVELKSVNYRFKEVNARLPRPLLYFEDKLKQTILQHIQRGRIELFVSVDSDMLVEKRLEIDWPLLDEFVAAARDMKKRYQLSAEPDVMDFFKLDHVVQVHEEQTQNDKLEALIIDAAEEAVKGLCEMREKEGLLLAKDCLMHIDQLEELVRETELLAADVVSRYRERLYARIKEWTEDVLDESRLVTECAIFADRSDITEEITRLKSHFAQFRDILASGGAVGRKLDFLVQELNREANTIGSKANDHQITKLVVEMKSSIEKIKEQVQNIE
With B1 the “stoichiometry N” value was ~6.
